What was measured:
[1] = molecular target: 28/32 kDa heterodimeric protein on the surface of malignant B-cells; experiment: whole cell indirect radioimmunoassay on HO-85 and Raji cells
[2] = molecular target: 28/32 kDa heterodimeric protein on the surface of malignant B-cells; experiment: Scatchard analysis, 125I-labelled antibody on Raji cells
[3] = molecular target: T1, human CD3 antigen on the surface of T cells (human, UniProt P07766 23-207); experiment: Scatchard analysis, 125I-labelled antibody on activated human T cells
T1 construct: whole, on cells; also called human CD3 complex
Experimental: Figure 11A: FIG. 11. (A). Displacement assay to compare the relative affinity of HuM291-Fos and M291 for their antigen. Sub-saturation amounts of murine M291-FITC on human T cells were displaced by increasing amounts of murine M291 or HuM291-Fos. T cells were resuspended in complete media at 2.5 ×10^6/ml. Dilutions of the test (HuM291-Fos) or control (murine M291) antibody were added and incubated at 4° C. for 1 hour. A fixed, subsaturation amount of murine M291-FITC was added, and the cells were incubated at 4° C. for 1 hour, wash d, and resuspended in 1% paraformaldehyde. The cells were then analyzed using flow cytometry. Values expressed in % inhibition of fluorescence intensity compared to no competitive antibody control. (B). Scatchard plot analysis of the binding of ^125I-label d HuM291-Fos to activated human T cells. […] The cells were washed in binding buffer (2% horse serum in PBS containing 0.1% sodium azide) and counted. Nonspecific binding was determined by inhibiting the specific binding with an excess of nonlabeled HuM291-Fos. The apparent K_a and the number of binding sites were calculated from the slope and th X axis intercept, respectively, of the Scatchard plot. […]
The relative affinity of murine M291 and HuM291-Fos F(ab'-zipper)_2 for T cells was evaluated using the displacement assay described above. […]

T1 sequence (P07766 23-207): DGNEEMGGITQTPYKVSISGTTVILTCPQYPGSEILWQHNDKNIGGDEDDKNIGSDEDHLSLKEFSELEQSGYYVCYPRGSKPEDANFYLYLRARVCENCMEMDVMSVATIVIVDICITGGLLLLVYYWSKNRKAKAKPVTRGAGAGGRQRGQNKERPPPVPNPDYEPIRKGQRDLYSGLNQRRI

B1: mouse 1D10 antibody (parent, IgG1/kappa) (antibody, V domains shown)
VH: QVQLKQSGPGLVQPSQSLSITCTGSGFSLTNYGVHWVRQSPGKGLEWLGVKWSGGSTEYNAAFISRLSISKDNSKSQVFFKMNSLQADDTAMYYCARNDRYAMDYWGQGTSVTVSS
VL: DIQMTQSPASLSASVGETVTITCRASENIYSYLAWYQQKQGKSPQLLVSNAKTLAEGVTSRFSGSGSGKQFSLKINSLQPEDFGNYYCQHHYGNSYPFGGGTKLEIK
In the case of B1, the binding activity relative to tissue culture medium alone [1] is reported as 5 times.

B2: humanized 1D10-IgG1 (antibody, V domains shown)
VH: QVQLQESGPGLVKPSETLSLTCTVSGFSLTNYGVHWVRQSPGKGLEWIGVKWSGGSTEYNAAFISRLTISKDTSKNQVSLKLNSLTAADTAVYYCARNDRYAMDYWGQGTLVTVSS
VL: DIQMTQSPSSLSASVGDRVTITCRASENIYSYLAWYQQKPGKAPKLLVSNAKTLAEGVPSRFSGSGSGKQFTLTISSLQPEDFATYYCQHHYGNSYPFGQGTKLEIKR
In the case of B2, the Ka [2] is reported as 2.3e+08 M⁻¹ and the sites per cell (sites per cell) [2] is reported as 500000.

B3: HuM291-Fos F(ab'-zipper)2 (antibody, V domains shown)
VH: QVQLVQSGAEVKKPGASVKVSCKASGYTFISYTMHWVRQAPGQGLEWMGYINPRSGYTHYNQKLKDKATLTADKSASTAYMELSSLRSEDTAVYYCARSAYYDYDGFAYWGQGTLVTVSS
VL: DIQMTQSPSSLSASVGDRVTITCSASSSVSYMNWYQQKPGKAPKRLIYDTSKLASGVPSRFSGSGSGTDFTLTISSLQPEDFATYYCQQWSSNPPTFGGGTKVEIKR
notes: Bivalent F(ab'-zipper)2 fragment without Fc; The heavy chain is the Fd-Fos (VH 1-120, CH1 121-218, modified hinge 219-238, Fos leucine zipper 239-279); 125I-labelled in the Scatchard analysis; also called humanized F(ab'-zipper)2 of M291
For B3, the Ka [3] was ~1.1e+09 M⁻¹.
